T1: ErbB3-mFc (human)
T1 construct: Dimeric soluble ErbB3; also called hErbB3.mFc
T1 chain: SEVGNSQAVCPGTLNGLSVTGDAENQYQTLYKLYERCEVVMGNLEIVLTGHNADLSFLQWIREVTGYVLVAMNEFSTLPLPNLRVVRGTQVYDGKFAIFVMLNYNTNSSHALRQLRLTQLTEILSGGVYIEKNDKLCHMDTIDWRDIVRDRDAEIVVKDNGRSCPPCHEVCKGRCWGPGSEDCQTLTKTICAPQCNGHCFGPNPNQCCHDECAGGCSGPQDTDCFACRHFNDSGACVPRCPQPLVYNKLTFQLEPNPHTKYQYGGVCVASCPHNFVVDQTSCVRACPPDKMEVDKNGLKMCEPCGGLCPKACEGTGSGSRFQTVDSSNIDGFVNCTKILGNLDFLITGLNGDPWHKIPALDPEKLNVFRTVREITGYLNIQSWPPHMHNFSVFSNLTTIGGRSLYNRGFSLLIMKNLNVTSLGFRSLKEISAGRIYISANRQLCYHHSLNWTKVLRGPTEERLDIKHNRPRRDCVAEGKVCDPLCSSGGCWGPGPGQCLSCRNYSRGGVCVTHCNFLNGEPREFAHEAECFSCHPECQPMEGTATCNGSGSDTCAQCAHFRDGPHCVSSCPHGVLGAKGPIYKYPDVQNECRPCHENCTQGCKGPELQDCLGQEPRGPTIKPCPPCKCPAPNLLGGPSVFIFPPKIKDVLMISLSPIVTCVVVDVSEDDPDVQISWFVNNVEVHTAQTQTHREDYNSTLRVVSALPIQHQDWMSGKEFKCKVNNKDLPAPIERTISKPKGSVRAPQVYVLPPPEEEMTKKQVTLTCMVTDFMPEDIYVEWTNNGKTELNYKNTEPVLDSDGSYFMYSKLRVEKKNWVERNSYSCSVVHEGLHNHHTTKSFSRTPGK


Columns and labels:
ErbB3-mFc = molecular target: T1, ErbB3-mFc; assay: blocking ELISA: antibody (0-50 nM) + 50 pM ErbB3-mFc, binding to coated neuregulin1b
From the text: To further characterize anti-hErbB3 mAbs of the present invention, their ability to block ligand binding was examined via ELISA. […] Plates were washed and non-sequestered (plate bound) ErbB3 was detected with an anti-Fc poly conjugated with horseradish peroxidase (HRP). Plates were developed with TMB (3,3′,5,5′-tetramethylbenzidine) and neutralized with sulfuric acid before reading absorbance at 450 nm on a Victor X5 plate reader. Data analysis used a sigmoidal dose-response model within Prism™ software. […] Maximal blocking for each antibody was calculated by taking the difference in absorbance from zero to 50 nM antibody on the inhibition curve, divided by the difference in absorbance from 50 pM to zero ErbB3 on the dose curve.

[1] = molecular target: ErbB3 (cell surface, on MCF-7, DU145, A431 and MCF7 cells) (human, UniProt P21860 20-1342); assay: cell-based or functional assay

Row | Binder | IC50 (ErbB3-mFc) [nM] | Maximal Blocking (%) (ErbB3-mFc) | Percent inhibition of Akt phosphorylation, 0.01 µg/ml ErbB3 antibody, DU145 cells + 0.5 nM NRG1 [1] [%] | Percent inhibition of Akt phosphorylation, 0.1 µg/ml ErbB3 antibody, DU145 cells + 0.5 nM NRG1 [1] [%] | Percent inhibition of Akt phosphorylation, 0.5 µg/ml ErbB3 antibody, DU145 cells + 0.5 nM NRG1 [1] [%]
1 | H4H2290P (antibody, human IgG4, V domains shown, Human IgG4 Fc (prefix H4H)) VH: EVQLLESGGGLVQPGGSLRLSCVASGFTFSSFAMSWVRQAPGKGLEWVSVISGSGGSTNHADSVRGRFTISRDNSLNTVYLQMHSLRAEDTALYYCVKAETSSSYFYYGMDVWGQGTTVTVSS VL: DIQLTQSPSFLSASVGDRVTITCWASQDISSYLAWYQQKPGKVPNLLIYGASSLQPGVPSRFSGSGSGTEFTLTISSLQPEDFATYYCQQLNNYPTFGGGTKLEIKR | 0.0664 | 99 |  |  | 
2 | H4H2132P (antibody, human IgG4, V domains shown, Human IgG4 Fc (prefix H4H)) VH: EVQLVESGGGVVRPGGSLRLSCAASGFTFDDYGMSWVRQFPGKGLEWVSSIDGNGGNTGYSDSVKGRFTISRDNAKNSLHLQMNSLRAEDTALYHCARDPDYDSVWGNYRPFDYWGQGTLVTVSS VL: DIVMTQSPDSLAVSLGERATINCKSSQSVLSSSNDNNYLAWFQQKPGQPPNLLIYWASTRDSGVPDRFSASGSGTDFTLAISSLQAEDVAVYYCHQYYSSPPTFGQGTKVEIKR | 0.0957 | 94 |  |  | 
3 | H2M1821N (antibody, mouse IgG2, V domains shown) VH: EVQLVESGGGLVQPGRSLRLSCAASGFTFDDYAMHWVRQAPGKGLEWVSSISWNSGSIGYADSVKGRFTISRDNAKNSLYLQMNSLKPEDTALYYCTKDTDYGDYLDAFDIWGQGTMVAVAS VL: not shown |  |  | 11 | 68 | 73
4 | H2M1824N (antibody, mouse IgG2, V domains shown) VH: EVQLVESGGGVVRPGGSLRLSCAASGFTFDDYGMSWVRQAPGKGLECVSGINWNGGSTDYADSVKGRFTISRDNAKNSLYLQMNSLRAEDTASYYCARDGGDWDYFDLWGRGTLVTVSS VL: EIVMTQSPATLSVSPGERATLSCRASQSVSSNLAWYQQKPGQAPRLLIYGASTRATGIPARFSGSGSGTEFTLTISSLQSEDFAVYFCQEYNDWPLTFGGGTKVEIK |  |  | 25 | 63 | 74
5 | H2M1827N (antibody, mouse IgG2, V domains shown) VH: EVQLVESGGGVVRPGGSLRLSCAASGFTFDDYGMSWVRQAPGKGLECVSGISWNGGNTDYADSVKGRFTISRDNAKNSLYLQMNSLRAEDTALYHCARDGGDWDYFDLWGRGTLVTVSS VL: EILMTQSPATLSVSPGERATLSCRASQSVSSNLAWYQQKPGQAPRLLIYGASTRATGIPARFSGSGSGTEFTLTISSLQSEDFAIYYCQEYNDWPLTFGGGTKVEIK |  |  | 16 | 73 | 75
6 | H4H2151P (antibody, human IgG4, V domains shown, Human IgG4 Fc (prefix H4H)) VH: QVQLVESGGGVVQPGRSLRLSCAASGFTFSNYGMHWVRQAPGKGLEWVARIWYDGSNKYYADSVKGRFTISRDSSKNTLYLQMNSLRAEDTAVYYCAREGEQNLDYYPLDVWGQGTTVTVSS VL: DIVMTQSPSSLSASVGDRVTITCRASQDIRNDLGWYQQKPGKAPKLLIYAASSLQTGVPSRFSGSVSGTDFTLTISSLQPEDFATYYCLQDYTYPLTFGGGTKVEIK | 0.0751 | 85 |  |  | 
7 | H4H2140P (antibody, human IgG4, V domains shown, Human IgG4 Fc (prefix H4H)) VH: EVQLVESGGGLVQPGGSLRLSCAASGFSVSYYDMHWVRQVTGKGLEWVSAIGPAGDTYYPGSVKGRFTISREDATNSLYLQIHSLGAGDTAVYYCAREGAIAARPDDYYGMDVWGQGTTVTVSS VL: DIQLTQSPSFLSASVGDRVTITCWASQDISSYLAWYQQKPGKAPKLLIYAASTLQSGVPSRFSGSGSGTEFTLTISSLQPEDFATYYCQQLNSYPLTFGGGTKVEIKR | 0.0946 | 83 |  |  | 
8 | H4H2147P (antibody, human IgG4, V domains shown, Human IgG4 Fc (prefix H4H)) VH: QVQLVESGGGLVKPGGSLRLSCAASGFTFSDFNMGWIRQAPGKGLEWVSHISGSGNVIYYADSVKGRFAISRDNGKNSLYLQVNSLRAEDTAVYYCARDIGDSDAFDIWGQGTMVTVSS VL: DIQLTQSPSFLSASVGDRVTITCWASQDISSYLAWYQQKPGKAPKLLIYGASTLESGVPSRFSGSGSGTEFTLTISSLQPEDVATYYCQQLNTYPLTFGGGTKVEIKR | 0.0506 | 99 |  |  | 
9 | H4H2143P (antibody, human IgG4, V domains shown, Human IgG4 Fc (prefix H4H)) VH: EVQLVESGGGLVQPGRSLRLSCAASGFTFGDYAMHWVRQAPGKGLEWVSGINLNSGTIGYADSVKGRFTISRDNAKNSLYLQMNSLRAEDTAFYYCAKDIDGYYHYAMDVWGQGTTVTVSS VL: DVVMTQSPSFLSASVGDRVTITCWASQGISSYLAWYQQKPGKAPKLLIYDASTLESGVPSRFSGSGSGTEFTLTISNLQPEDFATYYCQQVNSYPLTFGGGTKVEIKR | 0.0835 | 92 |  |  | 
10 | H4H2138P (antibody, human IgG4, V domains shown, Human IgG4 Fc (prefix H4H)) VH: QVQLQESGPGLVKPSQTLSLTCTVSGGSINSGGYYWSWIRQHPGKGLEWIGYISYSGNTNYNPSLKSRVTISVDTSKNQFSLTLTSVTAADTAVYYCARDSDVDTGLVDGFDVWGQGTMVTVSS VL: DIVMTQSPSSVSASVGDRVTITCRASQGVSSWLAWYQQKPGKAPKLLIYTTSSLQSGVPSRFSGSGSGTDFTLTISSLQPEDFATYYCQQSNSFPFTFGPGTKVEIK | 0.106 | 96 |  |  | 
11 | H4H2146P (antibody, human IgG4, V domains shown, Human IgG4 Fc (prefix H4H)) VH: QVQLVESGGGVVQPGRSLRLSCAASGFTFINYGIHWVRQGPGKGLEWVAVIWYDGSNEWYADSVKGRFTISRDNSKNTVYLEMNKLRAEDTAVYYCAREEEDYGMDVWGQGTTVTVSS VL: not shown | 0.177 | 83 |  |  | 
12 | H1M1819N (antibody, V domains shown) VH: EVQLVESGGGVVRPGGSLRLSCAASGFTFDDYAMHWVRQAPGKGLEWVAGISWNSGSIDYADSVKGRFTISRDNAKNSLYLQMNSLRAGDTALYYCAKDILDLDYYGLDVWGQGTTVTVSS VL: DIQMTQSPSSLSASVGDRVTITCRASQDISSYLAWYQQKPGKVPNLLIYDASSLQSGVPSRFSGSGSGTDFTLTLSSLQPEDFASYYCQNYNSAPYTFGQGTKLEIK |  |  | 29 | 72 | 75
13 | H4H2148P (antibody, human IgG4, V domains shown, Human IgG4 Fc (prefix H4H)) VH: EVQLVESGGGLVHPGRSLRLSCAASGFTFDDYAMHWVRQSPGKGLEWVSGISWNSVIKHSTDSVRGRFTISRDNAKNSLYLQMNSLKPEDTAFYYCAKDEDDWNYLDYWGQGTLVTVSS VL: DIQMTQSPSSVSASVGDRVTITCRASQDINSWLAWYQQKPGKAPKLLIYTSSNLQSGVPSRFSGSGSGTDFTLTISSLQPEDFATYYCQQSDSFPFTFGPGTKVDIKR | 0.0508 | 100 |  |  | 
14 | H4H2154P (antibody, human IgG4, V domains shown, Human IgG4 Fc (prefix H4H)) VH: QVQLQESGPGLINPSQTLSVTCTVSGGSISSGGYYWTWIRQHPGKGLEWIGYISYSGNTNYNPSLKSRVTISVDTAKNQFSLKLSSVTAADTAVYFCARDSDVDTAMVDGIDIWGQGTMVTVSS VL: DIQMTQSPSSVSASVGDRVTITCRASQDISSWLAWYQQKPGRAPKLLIYTASSLQSGVPSRFSGSGSGTDFTLTISSLQPEDFATYFCQQANSFPFTFGPGTKVDIKR | 0.0901 | 91 |  |  | 
15 | H4H2153P (antibody, human IgG4, V domains shown, Human IgG4 Fc (prefix H4H)) VH: QVQLVQSGAEVKKPGASVKVSCKASGYTFTRYGISWVRQAPGLGLEWMGWISAYDGYTNFAQKFQGRFTMTTDTSTNTAYMELRGLRSDDTAVYYCAREEEDAAFDIWGQGTMVTVSS VL: not shown | 0.074 | 82 |  |  | 
16 | H1M1828N (antibody, V domains shown) VH: EVQLVESGGGLVQPGRSLRLSCAASGFTFDDYAMYWVRQAPGKGLEWVSGISWNSGSIGYADSVKGRFTISRDNAKNSLYLQMDSLRAEDTALYYCARDMMEVDLYGMDVWGQGTTVTVSS VL: DIQMTQSPSSVSASVGDRVTITCRASQDISSWLAWYQQKPGTAPKFLIYETSSLQSGVPSRFSGSGSGTDFILTISSLQPEDFATYYCQQTDSFPHTFGQGTKLEIR |  |  | 22 | 66 | 75

From patent US20140072563A1 (Regeneron, published 2014)
